Results reported in patent publication US20230213527A1 (QUANTUM SI, published 2023).

What was measured:
Assay in all cases: single-molecule on-chip NAA recognition-only assay; immobilized peptide, dye-labeled recognizer in solution
[1] = molecular target: peptide with N-terminal IAA (C-terminal azidolysine conjugated to DNA-streptavidin linker)
Experimental: (§1) The semiconductor chip was placed in the sequencing device and a chip check was performed to test electronic circuit function and to optimize laser coupling alignment. The chip was then removed from the device socket and the chip was washed twice with 50 μL of 70% isopropanol, followed by four washes with 30 μL of wash buffer (50 mM MOPS pH 8.0, 60 mM potassium acetate, 50 mM glucose, 20 mM magnesium acetate, and surfactant mix) through a flow cell attached to the chip. A second chip check was then performed. The laser was then blocked via an integrated software-controlled shutter, peptide complex was added to a final concentration of 1-10 nM and mixed thoroughly, and the chip was incubated for 15 min. The chip was then washed six times with wash buffer, followed by addition of an imaging solution (wash buffer with 5 mM Trolox and an oxygen scavenging system). The laser was unblocked and the occupancy percentage (target 10-30%, Poisson distributed) was recorded by acquiring a photobleaching signal from a fluorophore attached to the peptide complex during 5 min of laser illumination. For NAA recognition-only assays, after peptide loading, labeled recognizer was added to a final concentration of 50 nM PS610, 100 nM PS691, or 250 nM PS961 (as indicated according to the experiment), and data was recorded for 10 hours. For dynamic sequencing assays, after peptide loading, a mixture of labeled recognizers was added to obtain final concentrations of 50 nM PS610, 100 nM PS691, and 250 nM PS961. Data was recorded for 15 min. The laser was then blocked briefly and aminopeptidases were added to the sequencing reaction via the flow cell and mixed thoroughly (final concentration 2-8 μM PhTET2 and/or 20-80 μM PhTET3, as indicated according to the experiment). The laser was then unblocked, and data was recorded for 10 hours. For all runs, 30 μL of mineral oil was added to fluid reservoirs at each port of the flow cell to prevent evaporation during the run.

[2] = molecular target: peptide with N-terminal VAA (C-terminal azidolysine conjugated to DNA-streptavidin linker)
Experimental: as §1

[3] = molecular target: peptide with N-terminal LAA (C-terminal azidolysine conjugated to DNA-streptavidin linker)
Experimental: as §1

B1: PS961 (designed binder)
chain: MPTAASATESAIEDTPAPARPEVDGRTKPKRQPRYHVVLWDDDDHTYQYVVVMLRSLFGHPPSRGYRMAKEMDTQGRVIVLTTTREHAELKRDQIHAFGRDRLLARSKGSMKASIEAEE
notes: also called PS961 (L, I, V); PS961 (LIV)
Question: How did the “median pulse duration (PD)” value [1] turn out when B1 was run?
Answer: The value was 0.28 s.

Question: And the “median pulse duration (PD)” value [2]?
Answer: Its value is 0.21 s.

Question: And the “median pulse duration (PD)” value [3]?
Answer: Its value is 1.21 s.
